Results on 1 molecule are retold here after patent publication US20130071405A1 (Eli Lilly, published 2013).

Assay [1] concerns the target Cyno PCSK9 (cynomolgus monkey). Briefly: SPR, 37 C, physiological buffer, n=4, Avg ± SD. In general terms: In SPR one partner is held on a chip, and binding of the other changes the refractive index at the surface.
Assay [2] addresses Rat PCSK9 (rat, UniProt P59996 31-691, limits assumed). Briefly: SPR, 25 C, n=2.
For assay [3], the target named is Human PCSK9 (human, UniProt Q8NBP7 31-692). Briefly: SPR, 37 C, physiological buffer, n=6, Avg ± SD.
Assay [4] has as its target Mouse PCSK9 (mouse, UniProt Q80W65 35-694, limits assumed). Put plainly: SPR, 25 C, n=3.
The target in assay [5] is T1, mature hPCSK9 C-term His (human, UniProt Q8NBP7 29-692).
T1 construct: also called intact human PCSK9; intact PCSK9
Put plainly: binding kinetics (method not named in Example 3).

Assay [6] addresses T2, hPCSK9 160-181 synthetic peptide (human).
T2 construct: Numbered on complete human PCSK9 including the twenty-eight amino acid signal peptide
T2 peptide: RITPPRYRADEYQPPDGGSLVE
Put plainly: binding kinetics to synthetic peptide, reference intact human PCSK9.

Assay [7] addresses T3, hPCSK9 163-174 synthetic peptide (human).
T3 peptide: PPRYRADEYQPP
Put plainly: binding kinetics to synthetic peptide (method not named in Example 3).

Assay [8] addresses T4, hPCSK9 166-181 synthetic peptide (human).
T4 peptide: YRADEYQPPDGGSLVE
Described as above.

Assay [9] addresses T2, hPCSK9 160-181 synthetic peptide. Described as above.
Assay [10] has as its target T5, Recombinant full length PCSK9, C-terminal HIS-tagged (HEK 293 stable cell line) (human, UniProt Q8NBP7 31-692).
T5 construct: also called C-terminal HIS-tagged recombinant human PCSK9; not shown: C-terminal HIS tag
Briefly: AlphaLISA, inhibition of PCSK9 (1 nM) binding to FLAG-tagged LDLR extracellular domain (1 nM). (In general: Bead proximity is the source of the signal in Alpha formats.)

Sequence of Human PCSK9 (Q8NBP7 31-692 limits assumed): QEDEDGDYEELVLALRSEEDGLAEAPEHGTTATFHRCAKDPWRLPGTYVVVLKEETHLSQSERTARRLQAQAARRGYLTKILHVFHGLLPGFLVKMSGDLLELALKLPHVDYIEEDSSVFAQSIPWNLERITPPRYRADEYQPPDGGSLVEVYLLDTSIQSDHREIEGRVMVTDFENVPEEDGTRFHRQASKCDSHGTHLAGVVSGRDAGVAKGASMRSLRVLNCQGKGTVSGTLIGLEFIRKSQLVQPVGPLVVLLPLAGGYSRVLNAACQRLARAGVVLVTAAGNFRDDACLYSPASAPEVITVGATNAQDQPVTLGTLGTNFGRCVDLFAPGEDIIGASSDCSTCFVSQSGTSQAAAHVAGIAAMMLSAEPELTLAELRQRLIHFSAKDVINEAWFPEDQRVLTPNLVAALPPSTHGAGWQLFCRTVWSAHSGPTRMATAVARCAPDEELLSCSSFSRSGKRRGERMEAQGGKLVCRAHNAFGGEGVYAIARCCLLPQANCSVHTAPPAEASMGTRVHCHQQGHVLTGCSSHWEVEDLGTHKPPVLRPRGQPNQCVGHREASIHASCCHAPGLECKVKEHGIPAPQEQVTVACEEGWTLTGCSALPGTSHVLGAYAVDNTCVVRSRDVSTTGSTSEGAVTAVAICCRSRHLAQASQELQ
T1 sequence (Q8NBP7 other isoform, or with tags, fused parts or gaps limits assumed): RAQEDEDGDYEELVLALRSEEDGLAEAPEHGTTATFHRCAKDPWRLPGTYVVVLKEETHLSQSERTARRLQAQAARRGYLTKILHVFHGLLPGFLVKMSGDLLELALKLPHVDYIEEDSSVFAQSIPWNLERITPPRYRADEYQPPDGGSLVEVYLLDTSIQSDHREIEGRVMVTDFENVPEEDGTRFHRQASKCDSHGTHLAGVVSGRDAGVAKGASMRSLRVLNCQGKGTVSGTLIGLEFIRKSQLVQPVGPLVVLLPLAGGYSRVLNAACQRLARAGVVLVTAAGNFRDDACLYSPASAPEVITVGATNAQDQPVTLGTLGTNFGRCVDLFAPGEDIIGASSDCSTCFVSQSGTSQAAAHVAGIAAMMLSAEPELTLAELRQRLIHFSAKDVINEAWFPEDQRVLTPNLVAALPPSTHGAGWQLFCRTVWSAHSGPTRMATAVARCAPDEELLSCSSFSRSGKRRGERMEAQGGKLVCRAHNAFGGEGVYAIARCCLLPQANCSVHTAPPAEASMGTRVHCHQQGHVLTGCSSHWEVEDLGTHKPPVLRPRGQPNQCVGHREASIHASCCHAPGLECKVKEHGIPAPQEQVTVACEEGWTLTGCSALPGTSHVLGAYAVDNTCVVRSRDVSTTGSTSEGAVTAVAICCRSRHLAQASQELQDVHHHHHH
T5 sequence (Q8NBP7 31-692 limits assumed): as the sequence (Q8NBP7 31-692 limits assumed) above
Sequence of Rat PCSK9 (P59996 31-691 limits assumed): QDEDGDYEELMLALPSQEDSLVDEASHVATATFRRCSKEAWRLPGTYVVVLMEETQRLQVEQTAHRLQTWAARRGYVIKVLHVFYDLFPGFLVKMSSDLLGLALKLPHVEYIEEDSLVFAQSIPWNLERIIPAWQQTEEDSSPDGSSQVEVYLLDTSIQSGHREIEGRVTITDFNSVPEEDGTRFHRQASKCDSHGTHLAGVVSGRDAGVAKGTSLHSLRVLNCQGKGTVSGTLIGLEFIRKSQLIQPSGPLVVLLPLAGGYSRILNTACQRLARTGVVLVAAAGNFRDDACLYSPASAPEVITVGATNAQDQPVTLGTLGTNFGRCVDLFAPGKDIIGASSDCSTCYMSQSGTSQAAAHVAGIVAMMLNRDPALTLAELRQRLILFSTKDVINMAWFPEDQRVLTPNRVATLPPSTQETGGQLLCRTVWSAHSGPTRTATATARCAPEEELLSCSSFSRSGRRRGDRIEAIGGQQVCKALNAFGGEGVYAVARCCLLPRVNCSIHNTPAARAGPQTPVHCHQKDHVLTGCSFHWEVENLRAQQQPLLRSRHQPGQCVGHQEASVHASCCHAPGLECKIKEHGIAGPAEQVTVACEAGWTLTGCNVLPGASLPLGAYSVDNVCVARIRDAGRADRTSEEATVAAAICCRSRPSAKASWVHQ
Sequence of Mouse PCSK9 (Q80W65 35-694 limits assumed): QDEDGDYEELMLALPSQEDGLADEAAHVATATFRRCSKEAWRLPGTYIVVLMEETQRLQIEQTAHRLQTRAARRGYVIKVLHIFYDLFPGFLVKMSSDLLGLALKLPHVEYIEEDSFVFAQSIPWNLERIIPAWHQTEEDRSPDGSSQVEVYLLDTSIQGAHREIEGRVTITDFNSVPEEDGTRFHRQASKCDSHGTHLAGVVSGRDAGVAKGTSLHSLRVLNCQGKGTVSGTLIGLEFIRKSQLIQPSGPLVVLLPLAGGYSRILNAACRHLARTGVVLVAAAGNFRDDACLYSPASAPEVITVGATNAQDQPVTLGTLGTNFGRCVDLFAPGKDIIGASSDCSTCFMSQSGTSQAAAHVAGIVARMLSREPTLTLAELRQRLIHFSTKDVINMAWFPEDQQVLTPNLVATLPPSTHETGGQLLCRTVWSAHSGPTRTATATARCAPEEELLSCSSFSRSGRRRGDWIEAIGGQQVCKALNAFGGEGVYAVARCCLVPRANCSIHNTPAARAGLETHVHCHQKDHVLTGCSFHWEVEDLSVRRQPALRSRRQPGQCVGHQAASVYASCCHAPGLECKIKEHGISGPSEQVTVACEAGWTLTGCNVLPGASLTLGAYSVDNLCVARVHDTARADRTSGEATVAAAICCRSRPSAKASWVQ

B1: engineered PCSK9 antibody of Example 1 (antibody, human IgG4 S228P, kappa, F234A L235A, V domains shown)
VH: EVQLVESGGGLVKPGGSLRLSCAASGFPFSKLGMVWVRQAPGKGLEWVSTISSGGGYTYYPDSVKGRFTISRDNAKNSLYLQMNSLRAEDTAVYYCAREGISFQGGTYTYVMDYWGQGTLVTVSS
VL: DIVMTQSPLSLPVTPGEPASISCRSSKSLLHRNGITYSYWYLQKPGQSPQLLIYQLSNLASGVPDRFSGSGSGTDFTLKISRVEAEDVGVYYCYQNLELPLTFGQGTKVEIKR
notes: the controls used are IgG4; also called test PCSK9 antibody
The term Kd denotes the constant that tells how readily two partners part at equilibrium. Read a high Kd as a looser complex. One may read the koff as the rate constant with which the complex falls apart. High values mean fast dissociation, low ones slow dissociation. Broadly, the kon is a measure of how fast the partners come together. A high value points to fast association. As usually defined, the IC50 is the concentration that gives 50% inhibition. As to B1, the Kd in [1] amounted to 25 nM; in assay [3], 11 nM; in [5], 1.8 nM; in assay [7], 3 nM; in assay [8], 34 nM; in assay [9], 0.17 nM. Also, the koff was 0.0025 s⁻¹ in assay [1]; 0.0012 s⁻¹ in [3]; 0.00015 s⁻¹ in [5]; 0.00831 s⁻¹ in assay [7]; 0.156 s⁻¹ in [8]; 0.000242 s⁻¹ in assay [9]. For the same molecule, the kon in assay [1] was found to be 110000 M⁻¹ s⁻¹; in assay [3], 120000 M⁻¹ s⁻¹; in [5] it was 86700 M⁻¹ s⁻¹; in assay [7] it was 2.75e+06 M⁻¹ s⁻¹; in assay [8], 4.58e+06 M⁻¹ s⁻¹; in assay [9], 1.45e+06 M⁻¹ s⁻¹. Further, the binding result in [2] and in assay [4] was “no binding” each time. Besides, the “koff fold difference against intact PCSK9” value in assay [6] is at most 2 fold. In addition, the IC50 in assay [10] is about 0.09 nM.
